Assay results from article PMC7864055, “Biochemical and biophysical analyses of hypoxia sensing prolyl hydroxylases from Dictyostelium discoideum and Toxoplasma gondii” (The Journal of Biological Chemistry, 2021).

Substrate: O=C(O)CCC(=O)C(=O)O
Test: RapidFire SPE-MS of Skp1 hydroxylation, Michaelis-Menten fit
Assay type: biochemical, Dictyostelium discoideum
Conditions: cosubstrate, full-length DdSkp1 100 μM, Fe(II) 50 μM, L-ascorbate 1 mM, HEPES pH 7.6, 37 °C, atmospheric O2
Source text: RapidFire SPE-MS of Skp1 hydroxylation, Michaelis-Menten fit on DdPhyA

B1: DdPhyA (Dictyostelium discoideum) (protein)
chain: MDISNLPPHIRQQILGLISKPQQNNDESSSSNNKNNLINNEKVSNVLIDLTSNLKIENFKIFNKESLNQLEKKGYLIIDNFLNDLNKINLIYDESYNQFKENKLIEAGMNKGTDKWKDKSIRGDYIQWIHRDSNSRIQDKDLSSTIRNINYLLDKLDLIKNEFDNVIPNFNSIKTQTQLAVYLNGGRYIKHRDSFYSSESLTISRRITMIYYVNKDWKKGDGGELRLYTNNPNNTNQKELKQTEEFIDIEPIADRLLIFLSPFLEHEVLQCNFEPRIAITTWIY
notes: full-length aa 1-284, E. coli BL21 Gold (DE3), N-terminal His6-ZBasic tag cleaved by TEV, EDTA-treated to remove metal
With B1 the Km was 36 ± 6 µM.
